Assay results taken from publication doi:10.1101/2022.05.18.492403 (bioRxiv, 2022).

B1: C-terminal StrepII-tagged ScSbtB C105A+C110A variant (natural protein, Synechocystis sp. PCC 6803)
chain: MAKPANKLVIVTEKILLKKIAKIIDESGAKGYTVMNTGGKGSRNVRSSGQPNTSDIEANIKFEILTETREMAEEIADRVAVKYFNDYAGIIYICSAEVLYGHTFAGPEGA
B2: truncated C-terminal StrepII-tagged ScSbtB protein (SbtB-Δ104) (domain or fragment, Synechocystis sp. PCC 6803, UniProt P73954 1-104, looked up)
chain: MAKPANKLVIVTEKILLKKIAKIIDESGAKGYTVMNTGGKGSRNVRSSGQPNTSDIEANIKFEILTETREMAEEIADRVAVKYFNDYAGIIYICSAEVLYGHTF

Target: the molecule itself
Assay: crystal structure

Protein | stoichiometry N
B1 | 3
B2 | 3
